Patent publication US20240287154A1, “MC3R AGONIST PEPTIDES” (The Regents of the University of Michigan, priority 2021, published 2024)
Non-standard residues stand in square brackets, D forms with d. Residues, ends and D or L forms follow the SMILES beside them. PKcap1 = N-terminal cap C18 diacid-γGlu-mPEG2; PKcap2 = N-terminal cap Aryl(4-I)-Gly-mPEG2; Phe(4-I) = N[C@@H](Cc1ccc(I)cc1)C(=O)O; Nle = CCCC[C@H](N)C(=O)O; dAbu = CC[C@@H](N)C(=O)O; Aib = CC(C)(N)C(=O)O

B1: CTX-1156 (peptide)
peptide: PKcap2-G[dY]V[Nle][dA]HFR[dW]D[dR]FG-OH
B2: CTX-1171 (peptide)
peptide: H-[dY]V[Nle][dA]H[Phe(4-I)]R[dW]D-NH2
SMILES: CCCC[C@H](NC(=O)[C@@H](NC(=O)[C@H](N)Cc1ccc(O)cc1)C(C)C)C(=O)N[C@H](C)C(=O)N[C@@H](Cc1c[nH]cn1)C(=O)N[C@@H](Cc1ccc(I)cc1)C(=O)N[C@@H](CCCNC(=N)N)C(=O)N[C@H](Cc1c[nH]c2ccccc12)C(=O)N[C@@H](CC(=O)O)C(N)=O
B3: CTX-1150 (peptide)
peptide: PKcap2-GV[Nle][dA]HFR[dW]DRFG-OH
B4: CTX-1148 (peptide)
peptide: PKcap2-G[Nle][dA]HFR[dW]DRFG-OH
B5: CTX-1151 (peptide)
peptide: PKcap1-G[dY]V[Nle][dA]HFR[dW]DRFG-OH
B6: CTX-1154 (peptide)
peptide: PKcap2-G[Nle][dA]HFR[dW]DR[dF]G-OH
B7: CTX-1153 (peptide)
peptide: PKcap1-G[Nle][dA]HFR[dW]DR[dF]G-OH
B8: CTX-1155 (peptide)
peptide: PKcap1-G[dY]V[Nle][dA]HFR[dW]D[dR]FG-OH
B9: CTX-1147 (peptide)
peptide: PKcap1-G[Nle][dA]HFR[dW]DRFG-OH
B10: CTX-1149 (PKcap1, SEQ ID NO 40) (peptide)
peptide: PKcap1-GV[Nle][dA]HFR[dW]DRFG-OH

These molecules were tested against human MC4R (Homo sapiens, UniProt P32245) (assay: Intracellular cAMP levels in live cells, MC3R selectivity relative to MC4R). Details: cAMP assays in human MC3R and human MC4R stable cell lines.
human MC4R, sequence (P32245 whole entry): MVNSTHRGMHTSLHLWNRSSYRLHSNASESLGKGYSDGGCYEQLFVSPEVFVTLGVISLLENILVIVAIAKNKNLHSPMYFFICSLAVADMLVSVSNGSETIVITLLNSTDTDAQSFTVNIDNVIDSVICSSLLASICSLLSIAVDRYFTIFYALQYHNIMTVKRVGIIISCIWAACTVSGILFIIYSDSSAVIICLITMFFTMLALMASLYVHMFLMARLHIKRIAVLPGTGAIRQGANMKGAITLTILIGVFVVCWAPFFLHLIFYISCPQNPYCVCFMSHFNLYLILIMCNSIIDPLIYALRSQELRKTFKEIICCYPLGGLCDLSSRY
Format: cell-based
Procedure: The stable cell lines were grown and maintained in selection media consisting of Dulbecco's modified Eagle media (DMEM) with 4.5 g/l D-glucose, and 4 mM L-glutamine (Thermo Fisher Scientific, Waltham, MA), supplemented with 10% fetal bovine serum, 100 units/ml penicillin, 100 μg/ml streptomycin, 2.5 μg/ml amphotericin B, 200 μg/ml hygromycin B (for positive selection of the GScAMP22f luciferase reporter), and Geneticin™ (G418) 700 μg/ml (for MC3R or MC4R selection). Actual serum concentration during the assay is estimated to be about 1%. Cell line identity is routinely verified by qPCR and MC3R- and MC4R-specific oligonucleotides.
The assay for the determination of the CAMP response in live cells was described previously. […] Ccells were seeded at a density of 20,000 cells per well using 384-well poly-D lysine-coated, clear bottom, and black-wall assay plates (Corning Inc. Corning, NJ). Cells were allowed to attach to the plates for 18 to 24 h after which growth media was removed and 20 ul of 4% D-luciferin (Promega) in CO2 independent, serum-free medium (Thermo Fisher Scientific) was added to each well. […] Intracellular cAMP levels were measured using an FDSS 7000EX Functional Drug Screening System (Hamamatsu Photonics, Hamamatsu, Japan) in the Center for Chemical Genomics at the Life Sciences Institute. This instrument allowed the in-line addition of test-peptides and receptor agonists while simultaneously acquiring the luminescence signal from live cells. […] A submaximal forskolin (20 μM) concentration was also included to serve as a normalization reference to account for cell number variations and differences in assay transducer efficiency between cell lines.
With this set up it was possible to evaluate the direct agonist effect of the test-peptides on the MC3R and MC4R cell lines during measurement window 1, while the antagonist profile in the presence of EC90 α-MSH was determined on measurement window 2. […] EC50 or IC50 potency values were determined by non-linear regression by fitting the data to a sigmoid four-parameter variable slope model using the GraphPad Prism version 8.4 software package (San Diego CA).
For `CCCC[C@H](NC(=O)[C@@H](NC(=O)[C@@H](N)Cc1ccc(O)cc1)C(C)C)C(=O)N[C@H](C)C(=O)N[C@@H](Cc1c[nH]cn1)C(=O)N[C@H](Cc1ccccc1)C(=O)N[C@@H](CCCNC(=N)N)C(=O)N[C@H](Cc1c[nH]c2ccccc12)C(=O)N[C@@H](CC(=O)O)C(=O)N[C@@H](CCCNC(=N)N)C(=O)N[C@@H](Cc1ccccc1)C(=O)NCC(=O)O` [CTX-1104, Tyr-Val-Nle-D-Ala-His-D-Phe-Arg-D-Trp-Asp-Arg-Phe-Gly] (H-YV[Nle][dA]H[dF]R[dW]DRFG-OH), the “MC3R selectivity (relative to MC4R)” value was 27. For `CCCC[C@H](NC(=O)[C@@H](NC(=O)[C@@H](N)Cc1ccc(O)cc1)C(C)C)C(=O)NCC(=O)N[C@@H](Cc1c[nH]cn1)C(=O)N[C@H](Cc1ccccc1)C(=O)N[C@@H](CCCNC(=N)N)C(=O)N[C@H](Cc1c[nH]c2ccccc12)C(=O)N[C@@H](CC(=O)O)C(N)=O` [CTX-1107, Tyr-Val-Nle-Gly-His-D-Phe-Arg-D-Trp-Asp] (H-YV[Nle]GH[dF]R[dW]D-NH2), the “MC3R selectivity (relative to MC4R)” value was 2.4. For `CC(=O)N[C@@H](CO)C(=O)NCC(=O)N[C@@H](Cc1c[nH]cn1)C(=O)N[C@H](Cc1ccccc1)C(=O)N[C@@H](CCCNC(=N)N)C(=O)N[C@H](Cc1c[nH]c2ccccc12)C(=O)N[C@@H](CC(=O)O)C(N)=O` [CTX-1111, Ser-Gly-His-D-Phe-Arg-D-Trp-Asp] (Ac-SGH[dF]R[dW]D-NH2), the “MC3R selectivity (relative to MC4R)” value was 0.1. For `CC(=O)N[C@H](C(=O)NCC(=O)N[C@@H](Cc1c[nH]cn1)C(=O)N[C@@H](Cc1ccccc1)C(=O)N[C@@H](CCCNC(=N)N)C(=O)N[C@H](Cc1c[nH]c2ccccc12)C(=O)N[C@@H](CC(=O)O)C(N)=O)[C@@H](C)O` [CTX-1112, Thr-Gly-His-Phe-Arg-D-Trp-Asp] (Ac-TGHFR[dW]D-NH2), the “MC3R selectivity (relative to MC4R)” value was 8.6. `CC(=O)N[C@H](C(=O)NCC(=O)N[C@@H](Cc1c[nH]cn1)C(=O)N[C@H](Cc1ccccc1)C(=O)N[C@@H](CCCNC(=N)N)C(=O)N[C@H](Cc1c[nH]c2ccccc12)C(=O)N[C@@H](CC(=O)O)C(N)=O)[C@@H](C)O` [CTX-1113, Thr-Gly-His-D-Phe-Arg-D-Trp-Asp] (Ac-TGH[dF]R[dW]D-NH2) was tested, and the “MC3R selectivity (relative to MC4R)” value was 0.4. For `CCCC[C@H](NC(C)=O)C(=O)N[C@H](C)C(=O)N[C@@H](Cc1c[nH]cn1)C(=O)N[C@@H](Cc1ccccc1)C(=O)N[C@@H](CCCNC(=N)N)C(=O)N[C@H](Cc1c[nH]c2ccccc12)C(=O)N[C@@H](CC(=O)O)C(N)=O` [CTX-1123, Nle-D-Ala-His-Phe-Arg-D-Trp-Asp] (Ac-[Nle][dA]HFR[dW]D-NH2), the “MC3R selectivity (relative to MC4R)” value was 28. With `CCCC[C@H](NC(=O)[C@@H](NC(=O)[C@@H](N)Cc1ccc(O)cc1)C(C)C)C(=O)NC(C)(C)C(=O)N[C@@H](Cc1c[nH]cn1)C(=O)N[C@@H](Cc1ccccc1)C(=O)N[C@@H](CCCNC(=N)N)C(=O)N[C@H](Cc1c[nH]c2ccccc12)C(=O)N[C@@H](CC(=O)O)C(N)=O` [CTX-1130, Tyr-Val-Nle-Aib-His-Phe-Arg-D-Trp-Asp] (H-YV[Nle][Aib]HFR[dW]D-NH2) the “MC3R selectivity (relative to MC4R)” value was 58. In the case of `CCCC[C@H](NC(=O)[C@@H](NC(=O)[C@@H](N)Cc1ccc(O)cc1)C(C)C)C(=O)N[C@@H](C)C(=O)N[C@@H](Cc1c[nH]cn1)C(=O)N[C@@H](Cc1ccccc1)C(=O)N[C@@H](CCCNC(=N)N)C(=O)N[C@H](Cc1c[nH]c2ccccc12)C(=O)N[C@@H](CC(=O)O)C(=O)N[C@@H](CCCNC(=N)N)C(=O)N[C@@H](Cc1ccccc1)C(=O)NCC(=O)O` [CTX-1133, Tyr-Val-Nle-Ala-His-Phe-Arg-D-Trp-Asp-Arg-Phe-Gly] (H-YV[Nle]AHFR[dW]DRFG-OH), the “MC3R selectivity (relative to MC4R)” value is reported as 7.4. For `CCCC[C@H](NC(=O)[C@@H](NC(=O)[C@@H](N)Cc1ccc(O)cc1)C(C)C)C(=O)N[C@H](CC)C(=O)N[C@@H](Cc1c[nH]cn1)C(=O)N[C@@H](Cc1ccccc1)C(=O)N[C@@H](CCCNC(=N)N)C(=O)N[C@H](Cc1c[nH]c2ccccc12)C(=O)N[C@@H](CC(=O)O)C(=O)N[C@@H](CCCNC(=N)N)C(=O)N[C@@H](Cc1ccccc1)C(=O)NCC(=O)O` [CTX-1135, Tyr-Val-Nle-D-Abu-His-Phe-Arg-D-Trp-Asp-Arg-Phe-Gly] (H-YV[Nle][dAbu]HFR[dW]DRFG-OH), the “MC3R selectivity (relative to MC4R)” value was 667. For `CCCC[C@H](NC(=O)[C@@H](NC(=O)[C@H](N)Cc1ccc(O)cc1)C(C)C)C(=O)N[C@H](C)C(=O)N[C@@H](Cc1c[nH]cn1)C(=O)N[C@@H](Cc1ccccc1)C(=O)N[C@@H](CCCNC(=N)N)C(=O)N[C@H](Cc1c[nH]c2ccccc12)C(=O)N[C@@H](CC(=O)O)C(N)=O` [CTX-1142, D-Tyr-Val-Nle-D-Ala-His-Phe-Arg-D-Trp-Asp] (H-[dY]V[Nle][dA]HFR[dW]D-NH2), the “MC3R selectivity (relative to MC4R)” value was 54. For `CCCC[C@H](NC(C)=O)C(=O)NC(C)(C)C(=O)N[C@@H](Cc1c[nH]cn1)C(=O)N[C@@H](Cc1ccccc1)C(=O)N[C@@H](CCCNC(=N)N)C(=O)N[C@H](Cc1c[nH]c2ccccc12)C(=O)N[C@@H](CC(=O)O)C(=O)N[C@@H](CCCNC(=N)N)C(=O)N[C@@H](Cc1ccccc1)C(=O)NCC(=O)O` [CTX-1143, Nle-Aib-His-Phe-Arg-D-Trp-Asp-Arg-Phe-Gly] (Ac-[Nle][Aib]HFR[dW]DRFG-OH), the “MC3R selectivity (relative to MC4R)” value was 3544. With `CCCC[C@H](NC(C)=O)C(=O)N[C@H](C)C(=O)N[C@@H](Cc1c[nH]cn1)C(=O)N[C@@H](Cc1ccccc1)C(=O)N[C@@H](CCCNC(=N)N)C(=O)N[C@H](Cc1c[nH]c2ccccc12)C(=O)N[C@@H](CC(=O)O)C(=O)N[C@@H](CCCNC(=N)N)C(=O)N[C@H](Cc1ccccc1)C(=O)NCC(=O)O` [CTX-1145, Nle-D-Ala-His-Phe-Arg-D-Trp-Asp-Arg-D-Phe-Gly] (Ac-[Nle][dA]HFR[dW]DR[dF]G-OH) the “MC3R selectivity (relative to MC4R)” value was 535. In the case of `CCCC[C@H](NC(=O)[C@@H](NC(=O)CNC(=O)COCCOCCNC(=O)CNC(=O)CCc1ccc(I)cc1)C(C)C)C(=O)N[C@H](C)C(=O)N[C@@H](Cc1c[nH]cn1)C(=O)N[C@@H](Cc1ccccc1)C(=O)N[C@@H](CCCNC(=N)N)C(=O)N[C@H](Cc1c[nH]c2ccccc12)C(=O)N[C@@H](CC(=O)O)C(=O)N[C@@H](CCCNC(=N)N)C(=O)N[C@@H](Cc1ccccc1)C(=O)NCC(=O)O` [CTX-1150, Gly-Val-Nle-D-Ala-His-Phe-Arg-D-Trp-Asp-Arg-Phe-Gly], the “MC3R selectivity (relative to MC4R)” value is reported as 577.

These molecules were tested against human MC3R (human, UniProt P41968 1-323) (assay: cell-based or functional assay). Details: not given.
human MC3R, sequence (P41968 whole entry): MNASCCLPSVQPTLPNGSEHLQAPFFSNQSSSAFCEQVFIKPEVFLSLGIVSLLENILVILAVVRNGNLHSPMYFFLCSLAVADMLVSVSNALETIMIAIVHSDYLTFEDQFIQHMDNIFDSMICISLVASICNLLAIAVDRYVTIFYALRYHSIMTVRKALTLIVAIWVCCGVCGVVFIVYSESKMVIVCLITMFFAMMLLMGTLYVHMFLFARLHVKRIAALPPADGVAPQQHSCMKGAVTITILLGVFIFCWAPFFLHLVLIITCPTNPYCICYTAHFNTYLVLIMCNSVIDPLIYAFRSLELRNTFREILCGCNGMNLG
With B1 the “MC3R cAMP (EC50)” value was 8.6 nM and the “MC3R selectivity (relative to MC4R)” value was 86. With B2 the “MC3R cAMP (EC50)” value was 54 nM and the “MC3R selectivity (relative to MC4R)” value was 234. In the case of B3, the “MC3R cAMP (EC50)” value is reported as 2.9 nM and the “MC3R selectivity (relative to MC4R)” value is reported as 577. B4 was tested, and the “MC3R cAMP (EC50)” value was 1.5 nM and the “MC3R selectivity (relative to MC4R)” value was 1200. In the case of B5, the “MC3R cAMP (EC50)” value is reported as 299 nM and the “MC3R selectivity (relative to MC4R)” value is reported as 126. In the case of B6, the “MC3R cAMP (EC50)” value is reported as 5.8 nM and the “MC3R selectivity (relative to MC4R)” value is reported as 1070. In the case of B7, the “MC3R cAMP (EC50)” value is reported as 5120 nM and the “MC3R selectivity (relative to MC4R)” value is reported as 0.13. B8 was tested, and the “MC3R cAMP (EC50)” value was 3130 nM and the “MC3R selectivity (relative to MC4R)” value was 415. B9 was tested, and the “MC3R cAMP (EC50)” value was 556 nM and the “MC3R selectivity (relative to MC4R)” value was 335. B10 was tested, and the “MC3R cAMP (EC50)” value was 313 nM and the “MC3R selectivity (relative to MC4R)” value was 215.
